Results as given in US6855873.
Where “and” joins values, the source holds several entries; their conditions need not be identical. Equal values may be shown once. Read-outs that look alike come from different tables or passages of the source.

Experiments:
[1] = molecular target: ICP receptor sites on brush border membrane vesicles of the Bt18 selected Manduca sexta strain (Manduca sexta)
[2] = molecular target: ICP receptor sites on brush border membrane vesicles of Heliothis virescens (Heliothis virescens); experiment: 125I-toxin competition binding on BBMV, filtration, LIGAND analysis
[3] = molecular target: ICP receptor sites on brush border membrane vesicles of Manduca sexta (reference, non-selected strain) (Manduca sexta); experiment: as above
[4] = molecular target: ICP receptor sites on brush border membrane vesicles of the sensitive Plutella xylostella strain PxS (Plutella xylostella); experiment: cell-based or functional assay; design: unit not given beside the values
[5] = molecular target: ICP receptor sites on brush border membrane vesicles of the Dipel-resistant Plutella xylostella strain PxR (Plutella xylostella); experiment: cell-based or functional assay; design: unit not given beside the values
[6] = molecular target: ICP receptor sites on brush border membrane vesicles of Heliothis virescens (Heliothis virescens)
[7] = molecular target: ICP receptor sites on brush border membrane vesicles of Manduca sexta (reference, non-selected strain) (Manduca sexta)
[8] = molecular target: ICP receptor sites on brush border membrane vesicles of the sensitive Plutella xylostella strain PxS (Plutella xylostella); experiment: 125I-toxin binding on P. xylostella BBMV
[9] = molecular target: ICP receptor sites on brush border membrane vesicles of the Bt2/Bt18 selected Manduca sexta strain (Manduca sexta)
[10] = molecular target: ICP receptor sites on brush border membrane vesicles of Pieris brassicae (Pieris brassicae); experiment: 125I-toxin competition binding on P. brassicae BBMV, LIGAND analysis
[11] = molecular target: ICP receptor sites on brush border membrane vesicles of Manduca sexta (reference, non-selected strain) (Manduca sexta); experiment: cell-based or functional assay
[12] = molecular target: ICP receptor sites on brush border membrane vesicles of the Bt18 selected Manduca sexta strain (Manduca sexta); experiment: cell-based or functional assay
[13] = molecular target: ICP receptor sites on brush border membrane vesicles of the Bt2 selected Manduca sexta strain (Manduca sexta); experiment: cell-based or functional assay
[14] = molecular target: ICP receptor sites on brush border membrane vesicles of the Dipel-resistant Plutella xylostella strain PxR (Plutella xylostella); experiment: 125I-toxin binding on P. xylostella BBMV
[15] = molecular target: ICP receptor sites on brush border membrane vesicles of Manduca sexta (reference, non-selected strain) (Manduca sexta); remark: listed apart in the source
[16] = molecular target: ICP receptor sites on brush border membrane vesicles of Manduca sexta (reference, non-selected strain) (Manduca sexta); remark: listed apart in the source
[17] = molecular target: ICP receptor sites on brush border membrane vesicles of Manduca sexta (reference, non-selected strain) (Manduca sexta); remark: listed apart in the source

Sequence of Bt3 toxin (P0A366 29-618 limits assumed): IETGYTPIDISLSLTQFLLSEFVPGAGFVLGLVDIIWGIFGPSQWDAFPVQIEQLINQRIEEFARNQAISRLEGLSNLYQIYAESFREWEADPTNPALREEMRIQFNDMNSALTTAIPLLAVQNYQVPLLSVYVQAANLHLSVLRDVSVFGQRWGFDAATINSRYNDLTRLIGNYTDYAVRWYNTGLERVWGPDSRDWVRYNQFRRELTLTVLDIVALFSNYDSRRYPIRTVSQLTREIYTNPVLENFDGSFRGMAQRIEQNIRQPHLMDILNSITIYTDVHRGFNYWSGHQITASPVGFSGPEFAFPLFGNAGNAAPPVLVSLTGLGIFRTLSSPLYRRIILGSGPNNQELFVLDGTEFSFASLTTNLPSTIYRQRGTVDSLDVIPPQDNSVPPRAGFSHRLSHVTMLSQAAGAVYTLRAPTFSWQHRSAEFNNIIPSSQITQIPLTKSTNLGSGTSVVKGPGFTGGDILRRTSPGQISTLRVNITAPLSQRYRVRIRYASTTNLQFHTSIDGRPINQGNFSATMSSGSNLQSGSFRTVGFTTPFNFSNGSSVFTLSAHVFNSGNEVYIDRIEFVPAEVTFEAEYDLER
Sequence of Bt14 toxin (P0A374 30-647 limits assumed): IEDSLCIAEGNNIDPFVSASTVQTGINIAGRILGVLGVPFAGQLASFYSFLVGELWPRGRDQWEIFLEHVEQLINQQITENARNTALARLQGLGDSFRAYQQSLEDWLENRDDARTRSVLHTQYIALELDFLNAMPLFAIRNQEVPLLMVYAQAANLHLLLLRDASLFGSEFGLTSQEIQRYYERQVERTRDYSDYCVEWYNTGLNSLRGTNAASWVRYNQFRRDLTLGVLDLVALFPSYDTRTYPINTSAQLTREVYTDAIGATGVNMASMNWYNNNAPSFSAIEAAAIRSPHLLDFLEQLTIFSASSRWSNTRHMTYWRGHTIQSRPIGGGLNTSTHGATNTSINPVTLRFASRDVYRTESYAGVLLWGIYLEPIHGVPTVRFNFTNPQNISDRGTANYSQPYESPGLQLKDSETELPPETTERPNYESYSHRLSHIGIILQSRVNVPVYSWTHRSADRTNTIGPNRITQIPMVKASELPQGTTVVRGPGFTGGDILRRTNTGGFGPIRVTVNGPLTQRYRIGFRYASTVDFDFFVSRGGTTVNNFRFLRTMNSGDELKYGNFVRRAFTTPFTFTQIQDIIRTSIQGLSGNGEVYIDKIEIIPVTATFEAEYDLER

| Substance | Kd [2] [nM] | Rt (binding site concentration) (pmol/mg vesicle protein) [2] | Kd [3] [nM] | Rt (binding site concentration) (pmol/mg vesicle protein) [3] | LC50 (larval mortality, artificial diet) (ng protein per cm^2 of artificial diet) [4] | LC50 (larval mortality, artificial diet) (ng protein per cm^2 of artificial diet) [5] | amount bound with labeled toxin alone (cpm) [6] [cpm] | amount bound with labeled toxin alone (cpm) [7] [cpm] | Kd [8] [nM] | Rt (binding site concentration) (pmol/mg protein) [8] | Kd [10] [nM] | Rt (binding site concentration) (pmol/mg vesicle protein) [10] | further results |
| --- | --- | --- | --- | --- | --- | --- | --- | --- | --- | --- | --- | --- | --- |
| Bt2 toxin (from UniProt P0A370 29-607) (ligand) | 0.6 | 9.7 | 0.4 | 3.4 | 6.7 | > 1350 | 1780 | 1820 | 8.1 | 1.6 | 2.8 | 12.9 | Kd [1]: 0.4 nM; Rt (binding site concentration) (pmoles/mg vesicle protein) [1]: 20.8; Kd [9]: 0.4 nM; Rt (binding site concentration) (pmol/mg vesicle protein) [9]: 3.4; LC50 (Bt2 sensitivity) [11]: 20 ng/cm^2; LC50 (Bt2 sensitivity) [12]: 4 ng/cm^2; LC50 of the 20th generation [13]: 6400 µg/g |
| Bt15 toxin (from UniProt P0A376 28-627) (ligand) | – | – | – | – | 133 | 120 | – | – | 1.9 | 4.2 | – | – | Kd [14]: 3.7 nM; Rt (binding site concentration) (pmol/mg protein) [14]: 5.8; Rt2 (binding site concentration) (pmol/mg vesicle protein) [15]: 6.7; Rt1 (binding site concentration) (pmol/mg vesicle protein) [16]: 5.9; Kd [17]: 0.3 nM and 2.9 nM |
| Bt3 toxin (from UniProt P0A366 29-618) (ligand) | 1.2 | 3.7 | 1.5 | 9.8 | – | – | 472 | 601 | – | – | – | – | – |
| Bt14 toxin (from UniProt P0A374 30-647) (ligand) | – | – | – | – | – | – | – | – | – | – | 8.4 | 21.4 | – |
| Bt73 toxin (from UniProt P05068 29-623) (ligand) | 0.8 | 19.5 | 0.6 | 4 | – | – | 6610 | 2380 | – | – | – | – | – |
